Assay results published in patent US20250326796A1 (SHANGHAI UNIVERSITY, published 2025).

T1: STING (mouse, UniProt Q3TBT3 1-378)
T1 sequence (looked up): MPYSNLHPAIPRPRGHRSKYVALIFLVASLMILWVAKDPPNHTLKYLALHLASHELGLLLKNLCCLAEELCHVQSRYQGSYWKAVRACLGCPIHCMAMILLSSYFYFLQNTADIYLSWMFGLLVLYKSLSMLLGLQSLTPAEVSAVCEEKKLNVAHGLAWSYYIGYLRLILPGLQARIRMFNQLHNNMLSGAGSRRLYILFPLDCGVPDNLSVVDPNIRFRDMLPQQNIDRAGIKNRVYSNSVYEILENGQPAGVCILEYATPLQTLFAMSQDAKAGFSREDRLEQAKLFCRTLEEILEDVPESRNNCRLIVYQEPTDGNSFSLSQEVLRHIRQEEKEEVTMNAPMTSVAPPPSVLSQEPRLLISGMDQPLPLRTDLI


Biological target: T1, STING
Assay: cell-based or functional assay

Point of comparison: Ac-NFNVAHGLAWSYYIGYLRLIL-NH2 (not fully specified) [SIP-6], “IC50 for inhibiting Ifnb mRNA (RT-qPCR, RAW264.7 cells stimulated with 2'3'-cGAMP)” value 35.3 µM. Against it:
- Ac-LAWSYYIGYLRL-NH2 [SIP-1] — 4.1-fold lower, 8.6 µM
- NFNVAHGLAWSYYIGYLRLILPELQARIRTYNQHYNNLL (N-terminus acetylated (-Ac); C-terminus amidated (-NH2)) [SIP-10] — 1.9-fold higher, 66.3 µM
- NFNVAHGLAWSYYIGYLRLILPELQARIRTYNQHYNNLLR (N-terminus acetylated (-Ac); C-terminus amidated (-NH2)) [SIP-11] — 1.5-fold higher, 53.2 µM
- Ac-NFNVAHGLAWSYYIG-NH2 (not fully specified) [SIP-5] — within 1.5-fold, 28.5 µM
- NFNVAHGLAWSYYIGYLRLILPELQ (N-terminus acetylated (-Ac); C-terminus amidated (-NH2)) [SIP-7] — 1.9-fold lower, 18.9 µM
- NFNVAHGLAWSYYIGYLRLILPELQARIRTYN (N-terminus acetylated (-Ac); C-terminus amidated (-NH2)) [SIP-8] — within 1.5-fold, 32.6 µM
- NFNVAHGLAWSYYIGYLRLILPELQARIRTYNQHYNNL (not fully specified; N-terminus acetylated (-Ac); C-terminus amidated (-NH2)) [SIP-9] — within 1.5-fold, 41.9 µM
